This is an account of results in patent US20230295324A1 (published 2023).

Test [1] deals with T1, cynomolgus monkey OX40 protein (Novoprotein, #CB17) (cynomolgus monkey).
T1 construct: Bought recombinant protein; also called cyno OX40
Kind of test: ELISA, coated cyno OX40 protein.

In test [2] the target is T2, human OX40 protein (Acro biosystem, #OX0-H5224) (human, UniProt P43489 29-216).
T2 construct: Bought recombinant protein
T2 sequence (looked up): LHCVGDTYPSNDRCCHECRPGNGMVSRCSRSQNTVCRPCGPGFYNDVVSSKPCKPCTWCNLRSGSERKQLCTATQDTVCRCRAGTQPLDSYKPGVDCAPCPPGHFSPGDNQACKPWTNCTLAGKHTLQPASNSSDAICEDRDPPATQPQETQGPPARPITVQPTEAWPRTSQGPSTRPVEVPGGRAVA
Put plainly: ELISA, coated human OX40 protein.

Test [3] concerns the target T3, human CD40 on CHO-K1 cells (CHO-K1/hu CD40) (human, UniProt P25942 21-277).
T3 construct: whole, on cells
Put plainly: flow cytometry on CHO-K1/hu CD40 cells. The procedure:
This example is intended to investigate the specificity of in vitro binding of anti-human OX40 HCAb monoclonal antibodies by detecting 3 receptors of the TNF tumor necrosis factor receptor superfamily and ICOS by flow cytometry. The antibody binding assay at the cellular level was performed using a CHO-K1 cell strain overexpressing human OX40 (CHO-K1/hu OX40), a CHO-K1 cell strain overexpressing human CD40 (CHO-K1/hu CD40, Beijing KYinno, #KC-1286), a CHO-K1 cell strain overexpressing human 4-1BB (CHO-K1/hu 4-1BB, Genscript, #M00538) and an HEK293 cell strain overexpressing human ICOS (HEK293T/ICOS, Genscript, #KC-0210). Briefly, these cells were digested and resuspended in F12K or DMEM complete medium, and the cell density was adjusted to 1×10⁶ cells/mL. The cells were seeded in a 96-well V-bottom plate at 100 μL/well, and centrifuged, and then the supernatant was discarded. Then, the test antibodies diluted in a 3-fold gradient were added at 100 μL/well. The cells were incubated at 4° C. for 1 h away from light. Thereafter, the cells in each well were rinsed twice with 100 μL of pre-cooled PBS, and centrifuged at 500 g at 4° C. for 5 min, and then the supernatant was discarded. […] Finally, the cells in each well were resuspended in 200 μL of pre-cooled PBS, and the fluorescence signal values were read using NovoCyte flow cytometer (ACEA Biosciences).

In test [4] the target is T4, human OX40 on cells (CHO-K1/hu OX40) (human, UniProt P43489 29-277).
T4 construct: whole, on cells; Also used here for OX40 on the HEK293/OX40/NF-kb reporter cells and on human T cells in the functional assays; also called CHO-K1/OX40; human OX40 cells
T4 sequence (looked up): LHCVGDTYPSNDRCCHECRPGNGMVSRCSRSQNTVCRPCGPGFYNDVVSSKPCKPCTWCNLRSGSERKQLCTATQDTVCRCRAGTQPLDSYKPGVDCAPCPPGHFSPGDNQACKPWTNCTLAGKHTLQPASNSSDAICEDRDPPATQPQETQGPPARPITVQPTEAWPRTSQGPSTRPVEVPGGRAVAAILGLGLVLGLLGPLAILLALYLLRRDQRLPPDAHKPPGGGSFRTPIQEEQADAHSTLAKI
Put plainly: FACS, blocking of biotin-human OX40L on CHO-K1/hu OX40 cells.

T3 sequence (P25942 21-277): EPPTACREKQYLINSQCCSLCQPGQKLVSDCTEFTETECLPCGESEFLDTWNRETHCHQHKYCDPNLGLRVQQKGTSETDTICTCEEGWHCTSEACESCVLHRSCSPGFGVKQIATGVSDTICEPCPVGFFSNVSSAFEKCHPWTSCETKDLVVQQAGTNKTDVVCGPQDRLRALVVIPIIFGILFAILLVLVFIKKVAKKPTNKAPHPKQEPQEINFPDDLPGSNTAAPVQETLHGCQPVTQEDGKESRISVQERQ

B1: PR002067 (antibody, human IgG1, V domains shown)
VH: EVQLLESGGGLVQPGGSLRLSCAASGFTFSSYAMSWVRQAPGKGLEWVSAISGRGGSTFYADSVRGRFTISRDNSKNTLYLQMNSLRAEDTAMYYCVDGTTGTTDVDYWGQGTLVTVSS
notes: no light chain; also called anti-OX40 HCAb antibody
As for B1, in test [1], a half-maximal response (EC50) required 232 pM and the “Maximum OD” value was 2.16 OD. Besides, in test [2], a half-maximal response (EC50) required 80.6 pM and the “Maximum OD” value was 2.38 OD. Besides, in test [3], the binding result is given as “no binding”. In test [4], the IC50 is 166000 pM and the “Maximum inhibition rate (%)” value is 64%.
